Data set [1] addresses SXR:RXR heterodimer (UniProt O75469;P19793 O75469:1-434,P19793:1-462). Put plainly: EMSA.
For data set [2], the target named is CAR:RXR heterodimer (UniProt Q14994;P19793 Q14994:1-352,P19793:1-462). Description: EMSA.
Chain of CAR:RXR heterodimer (Q14994 whole entry, chain 1 of 2): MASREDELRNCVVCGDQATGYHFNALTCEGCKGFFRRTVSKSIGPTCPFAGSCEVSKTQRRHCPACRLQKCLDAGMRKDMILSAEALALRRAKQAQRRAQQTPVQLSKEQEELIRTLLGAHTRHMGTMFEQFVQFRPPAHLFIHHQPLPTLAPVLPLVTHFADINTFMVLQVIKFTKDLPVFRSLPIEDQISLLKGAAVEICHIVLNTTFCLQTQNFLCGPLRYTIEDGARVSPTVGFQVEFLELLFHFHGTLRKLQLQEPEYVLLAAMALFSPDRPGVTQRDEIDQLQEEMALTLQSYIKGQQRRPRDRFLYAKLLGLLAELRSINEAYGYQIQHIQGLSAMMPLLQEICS
Chain of CAR:RXR heterodimer (P19793 whole entry, chain 2 of 2): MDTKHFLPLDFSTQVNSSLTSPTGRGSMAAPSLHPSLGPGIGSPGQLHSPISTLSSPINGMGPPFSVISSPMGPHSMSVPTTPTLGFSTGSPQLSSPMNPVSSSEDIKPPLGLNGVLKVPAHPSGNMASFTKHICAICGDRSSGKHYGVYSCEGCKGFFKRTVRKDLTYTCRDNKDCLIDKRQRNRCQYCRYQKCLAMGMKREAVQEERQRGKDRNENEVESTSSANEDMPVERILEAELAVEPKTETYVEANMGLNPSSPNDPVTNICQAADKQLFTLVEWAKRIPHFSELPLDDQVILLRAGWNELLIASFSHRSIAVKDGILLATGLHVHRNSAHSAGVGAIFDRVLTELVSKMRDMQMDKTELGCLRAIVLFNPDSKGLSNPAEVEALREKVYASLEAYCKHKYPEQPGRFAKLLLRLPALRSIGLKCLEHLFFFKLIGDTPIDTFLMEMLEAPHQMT

Chain of SXR:RXR heterodimer (O75469 whole entry, chain 1 of 2): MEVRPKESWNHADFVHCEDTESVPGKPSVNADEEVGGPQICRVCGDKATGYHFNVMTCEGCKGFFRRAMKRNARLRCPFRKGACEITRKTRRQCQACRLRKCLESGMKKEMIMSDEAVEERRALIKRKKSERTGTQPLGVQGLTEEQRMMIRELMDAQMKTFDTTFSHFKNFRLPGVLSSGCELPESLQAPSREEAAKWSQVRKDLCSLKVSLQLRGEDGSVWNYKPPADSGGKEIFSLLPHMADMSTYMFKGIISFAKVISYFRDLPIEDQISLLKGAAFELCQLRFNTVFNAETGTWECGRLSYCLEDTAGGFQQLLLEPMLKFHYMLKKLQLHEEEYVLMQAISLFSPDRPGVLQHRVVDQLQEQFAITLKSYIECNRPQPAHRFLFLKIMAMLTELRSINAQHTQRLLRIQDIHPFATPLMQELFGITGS
Chain of SXR:RXR heterodimer (P19793 whole entry, chain 2 of 2): as the sequence (P19793 whole entry, chain 2 of 2) above

B1: UGT1A6 DR-3 (dsDNA)
DNA 1: ACTGTAGTTCATAAAGTTCACATGG
DNA 2: CCATGTGAACTTTATGAACTACAGT
As for B1, the binding result in data set [1] and in data set [2] was “binds” in each case.
